The results in this text go back to the supplement of paper PMC5998384.

Data set [1] deals with HeLa Kyoto. The experiment in a line: thermal stability score vs G1/S (z-score of summed log2 fold changes over temperatures); higher = more thermally stable than in G1/S.
The test system of data set [2] is HeLa Kyoto. The experiment in a line: solubility in G1/S (NP-40 vs SDS abundance) (log2 ratio); higher = more soluble. Conditions: cell cycle stage: G1/S.
Data set [3] deals with HeLa Kyoto. The experiment in a line: melting temperature (median over replicates), in situ; higher = more thermally stable.
The subject of data set [4] is HeLa Kyoto. The experiment in a line: solubility change mitosis vs G1/S (difference of NP-40 vs SDS log2 ratios) (log2 ratio difference); higher = more soluble in mitosis.
The mark [5] stands for this setting: cell cycle stage: early G1 (4.5 h after nocodazole release).
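For melting temperature (median over replicates), in situ in this document: HeLa Kyoto cells synchronized by double thymidine or nocodazole block, proteins quantified by TMT10plex mass spectrometry, three independent biological replicates.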
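For solubility change mitosis vs G1/S (difference of NP-40 vs SDS log2 ratios) in this document: synchronized HeLa Kyoto cells (double thymidine block for G1/S, nocodazole release for mitosis), protein amounts in NP-40 versus SDS lysates quantified by mass spectrometry, three biological replicates.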
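For solubility in G1/S (NP-40 vs SDS abundance) in this document: HeLa Kyoto cells arrested at G1/S by double thymidine block, proteins quantified by TMT10plex mass spectrometry in mild NP-40 versus SDS extracts, three biological replicates.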
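For thermal stability score vs G1/S (z-score of summed log2 fold changes over temperatures) in this document: synchronized HeLa Kyoto cells, proteins quantified by TMT10plex mass spectrometry, three biological replicates, mitosis taken 0.5 h after nocodazole release, G1/S directly after double thymidine block.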

In the case of “MSRGPEEVNRLTESTYRNVMEQFNPGLRNLINLGKNYEKAVNAMILAGKAYYDGVAKIGEIATGSPVSTELGHVLIEISSTHKKLNESLDENFKKFHKEIIHELEKKIELDVKYMNATLKRYQTEHKNKLESLEKSQAELKKIRRKSQGSRNALKYEHKEIEYVETVTSRQSEIQKFIADGCKEALLEEKRRFCFLVDKHCGFANHIHYYHLQSAELLNSKLPRWQETCVDAIKVPEKIMNMIEEIKTPASTPVSGTPQASPMIERSNVVRKDYDTLSKCSPKMPPAPSGRAYTSPLIDMFNNPATAAPNSQRVNNSTGTSEDPSLQRSVSVATGLNMMKKQKVKTIFPHTAGSNKTLLSFAQGDVITLLIPEEKDGWLYGEHDVSKARGWFPSSYTKLLEENETEAVTVPTPSPTPVRSISTVNLSENSSVVIPPPDYLECLSMGAAADRRADSARTTSTFKAPASKPETAAPNDANGTAKPPFLSGENPFATVKLRPTVTNDRSAPIIR [BAIAP2L1]”, the thermal stability score in data set [1] (setting [5]) was determined as 1.74; in data set [1] (cell cycle stage: mitosis), 1.36. The “solubility in G1/S (log2)” value in data set [2] was determined as 0.326. Moreover, the melting temperature was 52.7 °C in data set [3] (cell cycle stage: G1/S) and 54.1 °C in data set [3] (cell cycle stage: mitosis). Further, in data set [4], the “solubility change mitosis (log2)” value was -0.0797.

“MSRQNLVALTVTTLLGVAVGGFVLWKGIQRRRRSKTSPVTQQPQQKVLGSRELPPPEDDQLHSSAPRSSWKERILKAKVVTVSQEAEWDQIEPLLRSELEDFPVLGIDCEWVNLEGKASPLSLLQMASPSGLCVLVRLPKLICGGKTLPRTLLDILADGTILKVGVGCSEDASKLLQDYGLVVRGCLDLRYLAMRQRNNLLCNGLSLKSLAETVLNFPLDKSLLLRCSNWDAETLTEDQVIYAARDAQISVALFLHLLGYPFSRNSPGEKNDDHSSWRKVLEKCQGVVDIPFRSKGMSRLGEEVNGEATESQQKPRNKKSKMDGMVPGNHQGRDPRKHKRKPLGVGYSARKSPLYDNCFLHAPDGQPLCTCDRRKAQWYLDKGIGELVSEEPFVVKLRFEPAGRPESPGDYYLMVKENLCVVCGKRDSYIRKNVIPHEYRKHFPIEMKDHNSHDVLLLCTSCHAISNYYDNHLKQQLAKEFQAPIGSEEGLRLLEDPERRQVRSGARALLNAESLPTQRKEELLQALREFYNTDVVTEEMLQEAASLETRISNENYVPHGLKVVQCHSQGGLRSLMQLESRWRQHFLDSMQPKHLPQQWSVDHNHQKLLRKFGEDLPIQLS [EXD2]”: the thermal stability score worked out at 0.38 in data set [1] (setting [5]) and 0.455 in data set [1] (cell cycle stage: mitosis). In addition, in data set [2], the “solubility in G1/S (log2)” value stood at 0.113. In addition, the melting temperature in data set [3] (cell cycle stage: G1/S) was 49.7 °C; in data set [3] (cell cycle stage: mitosis), 49.6 °C. For the same sequence, in data set [4], the “solubility change mitosis (log2)” value is -0.0547.

“MSRRLLPRAEKRRRRLEQRQQPDEQRRRSGAMVKMAAAGGGGGGGRYYGGGSEGGRAPKRLKTDNAGDQHGGGGGGGGGAGAAGGGGGGENYDDPHKTPASPVVHIRGLIDGVVEADLVEALQEFGPISYVVVMPKKRQALVEFEDVLGACNAVNYAADNQIYIAGHPAFVNYSTSQKISRPGDSDDSRSVNSVLLFTILNPIYSITTDVLYTICNPCGPVQRIVIFRKNGVQAMVEFDSVQSAQRAKASLNGADIYSGCCTLKIEYAKPTRLNVFKNDQDTWDYTNPNLSGQGDPGSNPNKRQRQPPLLGDHPAEYGGPHGGYHSHYHDEGYGPPPPHYEGRRMGPPVGGHRRGPSRYGPQYGHPPPPPPPPEYGPHADSPVLMVYGLDQSKMNCDRVFNVFCLYGNVEKVKFMKSKPGAAMVEMADGYAVDRAITHLNNNFMFGQKLNVCVSKQPAIMPGQSYGLEDGSCSYKDFSESRNNRFSTPEQAAKNRIQHPSNVLHFFNAPLEVTEENFFEICDELGVKRPSSVKVFSGKSERSSSGLLEWESKSDALETLGFLNHYQMKNPNGPYPYTLKLCFSTAQHAS [HNRNPL]”: the results for the thermal stability score in data set [1] (setting [5]) and in data set [1] (cell cycle stage: mitosis) were 5.28 and 10.5, respectively. For the same sequence, in data set [2], the “solubility in G1/S (log2)” value is -0.26. In addition, the melting temperature in data set [3] (cell cycle stage: G1/S) came out at 46.4 °C; in data set [3] (cell cycle stage: mitosis) it was 48.1 °C. Moreover, the “solubility change mitosis (log2)” value in data set [4] turned out to be 0.228.

In the case of “MSRRYDSRTTIFSPEGRLYQVEYAMEAIGHAGTCLGILANDGVLLAAERRNIHKLLDEVFFSEKIYKLNEDMACSVAGITSDANVLTNELRLIAQRYLLQYQEPIPCEQLVTALCDIKQAYTQFGGKRPFGVSLLYIGWDKHYGFQLYQSDPSGNYGGWKATCIGNNSAAAVSMLKQDYKEGEMTLKSALALAIKVLNKTMDVSKLSAEKVEIATLTRENGKTVIRVLKQKEVEQLIKKHEEEEAKAEREKKEKEQKEKDK [PSMA4]”, the thermal stability score in data set [1] (setting [5]) was -0.647; in data set [1] (cell cycle stage: mitosis), -0.541. In data set [2], the “solubility in G1/S (log2)” value is 0.45. Also, the melting temperature is 59.5 °C in data set [3] (cell cycle stage: G1/S) and 60.5 °C in data set [3] (cell cycle stage: mitosis). Moreover, in data set [4], the “solubility change mitosis (log2)” value was -0.0614.

For the sequence “MSRSYNDELQFLEKINKNCWRIKKGFVPNMQVEGVFYVNDALEKLMFEELRNACRGGGVGGFLPAMKQIGNVAALPGIVHRSIGLPDVHSGYGFAIGNMAAFDMNDPEAVVSPGGVGFDINCGVRLLRTNLDESDVQPVKEQLAQAMFDHIPVGVGSKGVIPMNAKDLEEALEMGVDWSLREGYAWAEDKEHCEEYGRMLQADPNKVSARAKKRGLPQLGTLGAGNHYAEIQVVDEIFNEYAAKKMGIDHKGQVCVMIHSGSRGLGHQVATDALVAMEKAMKRDKIIVNDRQLACARIASPEGQDYLKGMAAAGNYAWVNRSSMTFLTRQAFAKVFNTTPDDLDLHVIYDVSHNIAKVEQHVVDGKERTLLVHRKGSTRAFPPHHPLIAVDYQLTGQPVLIGGTMGTCSYVLTGTEQGMTETFGTTCHGAGRALSRAKSRRNLDFQDVLDKLADMGIAIRVASPKLVMEEAPESYKNVTDVVNTCHDAGISKKAIKLRPIAVIKG [RTCB]”, the thermal stability score in data set [1] (setting [5]) is -2.97; in data set [1] (cell cycle stage: mitosis), -3.42. For the same sequence, the “solubility in G1/S (log2)” value in data set [2] worked out at 0.171. Also, the melting temperature was 53 °C in data set [3] (cell cycle stage: G1/S) and 52.4 °C in data set [3] (cell cycle stage: mitosis). The “solubility change mitosis (log2)” value in data set [4] is 0.0881.

For the sequence “MSRYLLPLSALGTVAGAAVLLKDYVTGGACPSKATIPGKTVIVTGANTGIGKQTALELARRGGNIILACRDMEKCEAAAKDIRGETLNHHVNARHLDLASLKSIREFAAKIIEEEERVDILINNAGVMRCPHWTTEDGFEMQFGVNHLGHFLLTNLLLDKLKASAPSRIINLSSLAHVAGHIDFDDLNWQTRKYNTKAAYCQSKLAIVLFTKELSRRLQGSGVTVNALHPGVARTELGRHTGIHGSTFSSTTLGPIFWLLVKSPELAAQPSTYLAVAEELADVSGKYFDGLKQKAPAPEAEDEEVARRLWAESARLVGLEAPSVREQPLPR [RDH13]”, the thermal stability score in data set [1] (setting [5]) was -0.911; in data set [1] (cell cycle stage: mitosis) it was -0.156. Further, the “solubility in G1/S (log2)” value in data set [2] is 0.415. Moreover, the figures for the melting temperature in data set [3] (cell cycle stage: G1/S) and in data set [3] (cell cycle stage: mitosis) were 51.1 °C and 51.6 °C, respectively. In data set [4], the “solubility change mitosis (log2)” value amounted to 0.0735.
